In article doi:10.1101/2022.06.28.498018 (bioRxiv, 2022):

B1: P116 ectodomain (residues 30-957) from Mycoplasma pneumoniae (domain or fragment, UniProt P75556 30-957, looked up)
chain: NKTHQVEHESEQSDFQDIRFGLNSVKLPKAQPAAATRITVENGTDKLVNYKSSPQQLFLAKNALKDKLQGEFDKFLSDAKAFPALTADLQEWVDQQLFNPNQSFFDLSAPRSNFTLSSDKKASLDFIFRFTNFTESVQLLKLPEGVSVVVDSKQSFDYYVNASAQKLLVLPLSLPDYTLGLNYMFDHITLNGKVVNKFSFNPFKTNLNLAFSNVYNGVDVFEAQKNLVGKGKYLNTHVKAEDVKKDVNANIKNQFDIAKIIAELMGKALKEFGNQQEGQPLSFLKVMDKVKEDFEKLFNLVRPGLGKFVKDLIQSSSQAENKITVYKLIFDNKKTILNLLKELSIPELNSSLGLVDVLFDGITDSDGLYERLQSFKDLIVPAVKTNEKTAALSPLIEELLTQKDTYVFDLIQKHKGILTNLLKNFLADFQKSTPFMADQVAIFTELFDNEGAFDLFGEADFVDKIAELFLTKRTVKNGEKIETKDSLLVTSLKSLLGEKVAALGDLLDSYIFKNELLNRSVEVAKAEAKDTKGATDYKKEQAKALKKLFKHIGENTLSKTNLDKITLKEVKNTENVELEETETTLKVKKLDVEYKVELGNFEIKNGLIKAMLEFLPDTKDLETTLDKLLFKGESYKAMKDKYIKEGFPGYGWAKGVVPGAFESIENTFKSAIDKTKSIRDLFGDMLFGNDLSSVKETDSFITLGGSFDIKYGGENLNVLPAYYSLINSEIGYQIIGVDTTIDATKVKVELKNKEYKGKSPAINGQVKLSQSFFNVWTNMFDSITKQIFQKKYEFKDNIQVFARNEDNTSRLELDISDPEQRVIPFAFVDGFGIQLKAVDKNITKEAGNTEPKSPVIQLYEALNKEKDQKQQSKQSPKQLDTKTQLGYLLKLGDNWSKDDYKSLIDDTIINNNYLEASFNSKITVDRLG

Key:
[1] = molecular target: P116 variant Trp681Ala (Mycoplasma pneumoniae) (UniProt P75556); experiment: SEC-MALS
cryo-EM structure = molecular target: the molecule itself; experiment: cryo-EM structure

| Molecule | ratio of dimers to monomers (dimers per monomer) [1] | stoichiometry N (cryo-EM structure) |
| --- | --- | --- |
| P116 variant Trp681Ala (from UniProt P75556 30-957) (domain or fragment) | 0.25 |  |
| B1 |  | 2 |
